Key:
[1] = biological target: MD-2 (myeloid differentiation protein-2) (UniProt Q9Y6Y9); assay: SPR (BIAcore 3000), TFL amine-coupled on CM5 chip, MD-2 8-250 nM as analyte, 1:1 Langmuir model, 25 C
[2] = biological target: MD-2 (myeloid differentiation protein-2) (UniProt Q9Y6Y9); assay: SPR (BIAcore 3000): TFL amine-coupled on a CM5 chip, MD-2 at 8 to 250 nM as analyte, 25 C, 1:1 Langmuir fit

Sequence of UniProt Q9Y6Y9 (Q9Y6Y9 19-160 limits assumed): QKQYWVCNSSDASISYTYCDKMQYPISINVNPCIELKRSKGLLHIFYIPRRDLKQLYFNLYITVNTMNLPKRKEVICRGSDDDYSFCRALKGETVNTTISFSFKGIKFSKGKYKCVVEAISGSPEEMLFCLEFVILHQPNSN

Kd [1]: 81 nM
Kd [2]: 81.1 nM
koff [2]: 0.00187 s⁻¹
kon [2]: 23100 M⁻¹ s⁻¹
Substance: TFL (Fc-tagged hTLR4 full-length ectodomain) (Fc fusion)
